Test results: patent US20140087995A1 (published 2014)
Numbered stars: 1 amine (or outer) side, 2 acyl side, 3 side chain; on linkers, the order of the positions; unused ones are H or OH. Bridge positions count the residues as written; N and C are the ends. Side chains are listed from the residue outwards. Ends that are not written are not given here. * marks the point of attachment. C20 diacid = O=C(O)CCCCCCCCCCCCCCCCCCC(=O)*; γGlu = O=C(O)[C@H](CCC(=O)[*:2])N[*:1]; AEEA = NCCOCCOCC(=O)O

T1: human amylin 3(a) receptor (human calcitonin receptor co-expressed with RAMP-3) (human, UniProt P30988 25-474; O60896 24-148, limits assumed)
T1 sequence (looked up) 1: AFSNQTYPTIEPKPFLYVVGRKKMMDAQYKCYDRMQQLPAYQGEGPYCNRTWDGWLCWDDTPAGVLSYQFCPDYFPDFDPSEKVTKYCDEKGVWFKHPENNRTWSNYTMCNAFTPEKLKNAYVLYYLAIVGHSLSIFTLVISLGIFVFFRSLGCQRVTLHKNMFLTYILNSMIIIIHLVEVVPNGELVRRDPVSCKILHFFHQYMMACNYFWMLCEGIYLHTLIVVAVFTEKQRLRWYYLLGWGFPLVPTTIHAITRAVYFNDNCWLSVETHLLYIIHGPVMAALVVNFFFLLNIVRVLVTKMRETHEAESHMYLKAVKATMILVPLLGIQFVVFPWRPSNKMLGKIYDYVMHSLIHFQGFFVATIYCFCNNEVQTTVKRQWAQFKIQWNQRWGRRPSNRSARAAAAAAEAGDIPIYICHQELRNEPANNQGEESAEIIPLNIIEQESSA
T1 sequence (looked up) 2: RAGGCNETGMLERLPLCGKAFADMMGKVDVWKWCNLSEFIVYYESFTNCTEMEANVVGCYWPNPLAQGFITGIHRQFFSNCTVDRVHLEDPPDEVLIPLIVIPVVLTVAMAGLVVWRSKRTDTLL

T2: human calcitonin receptor (human, UniProt P30988 25-474)
T2 sequence (looked up): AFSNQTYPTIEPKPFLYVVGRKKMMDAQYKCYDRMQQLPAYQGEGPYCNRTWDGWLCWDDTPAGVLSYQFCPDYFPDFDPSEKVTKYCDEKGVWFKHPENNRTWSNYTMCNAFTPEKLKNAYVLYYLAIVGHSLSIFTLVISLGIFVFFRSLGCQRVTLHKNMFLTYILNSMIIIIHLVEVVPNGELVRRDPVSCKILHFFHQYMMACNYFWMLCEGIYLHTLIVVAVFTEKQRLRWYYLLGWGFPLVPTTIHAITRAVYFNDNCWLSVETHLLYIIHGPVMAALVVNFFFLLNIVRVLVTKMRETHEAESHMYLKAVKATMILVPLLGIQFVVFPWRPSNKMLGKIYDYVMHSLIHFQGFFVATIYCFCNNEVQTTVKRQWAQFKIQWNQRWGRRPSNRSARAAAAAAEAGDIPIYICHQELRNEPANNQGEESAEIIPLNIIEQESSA

T3: human amylin receptor (amylin 3(a) receptor: human calcitonin receptor plus RAMP-3) (human, UniProt P30988 25-474; O60896 24-148)
T3 construct: whole, on cells; functional assay used the whole cells; also called hAmylin-R; hAmylinR
T3 sequence (looked up) 1: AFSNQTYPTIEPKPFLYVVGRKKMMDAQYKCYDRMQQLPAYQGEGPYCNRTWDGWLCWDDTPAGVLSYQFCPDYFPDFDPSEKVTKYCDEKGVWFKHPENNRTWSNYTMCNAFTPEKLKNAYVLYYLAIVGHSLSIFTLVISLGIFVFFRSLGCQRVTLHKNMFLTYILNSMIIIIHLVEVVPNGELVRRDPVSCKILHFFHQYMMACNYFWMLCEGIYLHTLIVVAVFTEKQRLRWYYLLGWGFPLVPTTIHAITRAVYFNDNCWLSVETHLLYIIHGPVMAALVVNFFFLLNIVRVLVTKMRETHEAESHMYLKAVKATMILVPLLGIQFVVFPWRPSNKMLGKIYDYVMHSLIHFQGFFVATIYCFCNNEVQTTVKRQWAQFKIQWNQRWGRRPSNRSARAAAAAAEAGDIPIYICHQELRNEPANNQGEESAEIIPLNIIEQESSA
T3 sequence (looked up) 2: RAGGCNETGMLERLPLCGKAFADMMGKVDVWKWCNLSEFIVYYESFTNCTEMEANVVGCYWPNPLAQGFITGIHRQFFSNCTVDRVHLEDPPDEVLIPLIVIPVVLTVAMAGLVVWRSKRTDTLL

T4: human calcitonin receptor (human, UniProt P30988 25-474)
T4 sequence (looked up): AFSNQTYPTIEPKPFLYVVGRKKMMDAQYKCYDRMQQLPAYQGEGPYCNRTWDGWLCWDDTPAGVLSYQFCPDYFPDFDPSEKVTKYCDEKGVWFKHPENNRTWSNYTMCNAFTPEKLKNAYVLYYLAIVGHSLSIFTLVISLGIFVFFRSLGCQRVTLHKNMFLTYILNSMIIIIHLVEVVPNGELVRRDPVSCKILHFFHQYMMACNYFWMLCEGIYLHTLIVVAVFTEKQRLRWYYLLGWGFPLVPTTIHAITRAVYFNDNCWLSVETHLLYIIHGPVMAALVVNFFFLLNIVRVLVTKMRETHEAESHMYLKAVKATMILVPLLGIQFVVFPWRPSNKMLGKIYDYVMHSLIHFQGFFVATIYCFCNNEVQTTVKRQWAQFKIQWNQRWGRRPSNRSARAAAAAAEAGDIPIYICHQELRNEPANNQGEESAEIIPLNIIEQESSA


Tests used:
[1] = biological target: T1, human amylin 3(a) receptor (human …); assay: cell-based or functional assay
[2] = biological target: T2, human calcitonin receptor; assay: cell-based or functional assay
[3] = biological target: T3, human amylin receptor (amylin 3(a) …); assay: SPA competition, displacement of 125I-rat amylin from membranes of BHK cells with human calcitonin receptor + RAMP-3 (Assay V)
Procedure: The binding assay was performed using scintillation proximity assay (SPA) beads (RPNQ0001) from PerkinElmer and cell membranes from the Amylin 3(a)/CRE-luc cells (as described in Assay (II)) were used. Membranes were prepared in the following way; the cells were rinsed with PBS and incubated with Versene for approximately 5 min before harvesting. The cells were flushed with PBS and the cell-suspension was centrifuged for 5 min at 1000 rpm. Cells were homogenized (ultrathurrax) in a buffer containing 20 mM Na-HEPES and 10 mM EDTA (pH 7.4) and centrifuged at 20.000 rpm for 15 min. The resulting pellet was resuspended, homogenized and centrifuged (20.000 rpm, 15 min) in a buffer containing 20 mM Na-HEPES and 0.1 mM EDTA (pH 7.4, buffer 2). The resulting pellet was resuspended in buffer 2 and protein concentration was measured (BCA protein Assay, Pierce). The homogenate was kept cold during the whole procedure. The membranes were kept at −80° C. until use. The assay was performed in a 384 well Optiplate (PerkinElmer) in a total volume of 40 ul. Membranes were mixed with SPA beads. Final concentration of membranes 35 ng/μL final and SPA beads was 0.05 mg/well. Test-compounds were dissolved in DMSO and further diluted in assay buffer (50 mM Hepes, pH 7.4, 1 mM CaCl2, 5 mM MgCl₂, 0.1% OA and 0.02% Tween20). […] The final mixture was incubated with shaking at 400 rpm for 120 min at 25° C. prior to centrifugation (1500 rpm, 10 min). Samples were analyzed on TopCounter™ (Packard). The IC₅₀ was calculated using (one site binding competition analysis) GraphPad Prism5 as a measure of receptor affinity.

[4] = biological target: T3, human amylin receptor (amylin 3(a) …); assay: cell-based or functional assay
[5] = biological target: T4, human calcitonin receptor; assay: cell-based or functional assay; remark: listed apart in the source

Ratio hCT/hAmylin funct. [1]	hCTR funct. EC50 [2] [pM]	IC50 [3] [nM]	Ratio hCT/hAmylin funct. [4]	hAmylin-R funct. EC50 (pM) [4] [pM]	hCTR funct. EC50 (pM) [5] [pM]	Binder
8.9	3430	–	–	–	–	{C20 diacid-γGlu-γGlu}-KCNTATCATQRLAEFLRHSSPNFGAIPSSTNVGSNTY-NH2 (disulfide 2-7; SMILES CC[C@H](C)[C@H](NC(=O)[C@H](C)NC(=O)CNC(=O)[C@H](Cc1ccccc1)NC(=O)[C@H](CC(N)=O)NC(=O)[C@@H]1CCCN1C(=O)[C@H](CO)NC(=O)[C@H](CO)NC(=O)[C@H](Cc1c[nH]cn1)NC(=O)[C@H](CCCNC(=N)N)NC(=O)[C@H](CC(C)C)NC(=O)[C@H](Cc1ccccc1)NC(=O)[C@H](CCC(=O)O)NC(=O)[C@H](C)NC(=O)[C@H](CC(C)C)NC(=O)[C@H](CCCNC(=N)N)NC(=O)[C@H](CCC(N)=O)NC(=O)[C@@H](NC(=O)[C@H](C)NC(=O)[C@@H]1CSSC[C@H](NC(=O)[C@H](CCCCN)NC(=O)CC[C@H](NC(=O)CC[C@H](NC(=O)CCCCCCCCCCCCCCCCCCC(=O)O)C(=O)O)C(=O)O)C(=O)N[C@@H](CC(N)=O)C(=O)N[C@@H]([C@@H](C)O)C(=O)N[C@@H](C)C(=O)N[C@@H]([C@@H](C)O)C(=O)N1)[C@@H](C)O)C(=O)N1CCC[C@H]1C(=O)N[C@@H](CO)C(=O)N[C@@H](CO)C(=O)N[C@H](C(=O)N[C@@H](CC(N)=O)C(=O)N[C@H](C(=O)NCC(=O)N[C@@H](CO)C(=O)N[C@@H](CC(N)=O)C(=O)N[C@H](C(=O)N[C@@H](Cc1ccc(O)cc1)C(N)=O)[C@@H](C)O)C(C)C)[C@@H](C)O, h-amylin derivative; disulfide bridge and C-terminal amide as told for human amylin; also called compound 15)
9.8	625	–	–	–	–	K([AEEA-γGlu-C20 diacid])CNTATCATQRLANFLRHSSPNFGAIPPSTPVGSNTY-NH2 (disulfide 2-7, h-amylin derivative; disulfide bridge and C-terminal amide as told for human amylin; also called compound 53)
–	–	0.344	6	222	1320	{C20 diacid-γGlu}-GRCNTATCATQRLANFLRHSSPNFGAIPSSTNVGSHTY-NH2 (disulfide 3-8; SMILES CC[C@H](C)[C@H](NC(=O)[C@H](C)NC(=O)CNC(=O)[C@H](Cc1ccccc1)NC(=O)[C@H](CC(N)=O)NC(=O)[C@@H]1CCCN1C(=O)[C@H](CO)NC(=O)[C@H](CO)NC(=O)[C@H](Cc1c[nH]cn1)NC(=O)[C@H](CCCNC(=N)N)NC(=O)[C@H](CC(C)C)NC(=O)[C@H](Cc1ccccc1)NC(=O)[C@H](CC(N)=O)NC(=O)[C@H](C)NC(=O)[C@H](CC(C)C)NC(=O)[C@H](CCCNC(=N)N)NC(=O)[C@H](CCC(N)=O)NC(=O)[C@@H](NC(=O)[C@H](C)NC(=O)[C@@H]1CSSC[C@H](NC(=O)[C@H](CCCNC(=N)N)NC(=O)CNC(=O)CC[C@H](NC(=O)CCCCCCCCCCCCCCCCCCC(=O)O)C(=O)O)C(=O)N[C@@H](CC(N)=O)C(=O)N[C@@H]([C@@H](C)O)C(=O)N[C@@H](C)C(=O)N[C@@H]([C@@H](C)O)C(=O)N1)[C@@H](C)O)C(=O)N1CCC[C@H]1C(=O)N[C@@H](CO)C(=O)N[C@@H](CO)C(=O)N[C@H](C(=O)N[C@@H](CC(N)=O)C(=O)N[C@H](C(=O)NCC(=O)N[C@@H](CO)C(=O)N[C@@H](Cc1c[nH]cn1)C(=O)N[C@H](C(=O)N[C@@H](Cc1ccc(O)cc1)C(N)=O)[C@@H](C)O)C(C)C)[C@@H](C)O, N-terminal extension by Gly at position -1; also called compound 47)
